These results are taken from US20040132642A1, “Methods of inhibiting metastasis or growth of a tumor cell” (Government of the U.S.A., represented by the Secretary, …, priority 2002, published 2004).

Experiment [1] deals with human CXC Chemokine Receptor-4 (CXCR4) (human) (UniProt P61073). Briefly: cell-based or functional assay.
Experiment [2] has as its target LMEC-derived CXCL12 (endogenous CXCL12 of human lung microvascular endothelial cells) (human) (UniProt P48061). Briefly: cell-based or functional assay.

Chain of recombinant CXCL12 (SDF-1) (ligand) (P48061 22-93): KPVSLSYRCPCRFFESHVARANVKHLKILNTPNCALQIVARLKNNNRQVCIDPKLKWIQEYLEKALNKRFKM
Chain of human CXC Chemokine Receptor-4 (CXCR4) (human) (P61073 whole entry): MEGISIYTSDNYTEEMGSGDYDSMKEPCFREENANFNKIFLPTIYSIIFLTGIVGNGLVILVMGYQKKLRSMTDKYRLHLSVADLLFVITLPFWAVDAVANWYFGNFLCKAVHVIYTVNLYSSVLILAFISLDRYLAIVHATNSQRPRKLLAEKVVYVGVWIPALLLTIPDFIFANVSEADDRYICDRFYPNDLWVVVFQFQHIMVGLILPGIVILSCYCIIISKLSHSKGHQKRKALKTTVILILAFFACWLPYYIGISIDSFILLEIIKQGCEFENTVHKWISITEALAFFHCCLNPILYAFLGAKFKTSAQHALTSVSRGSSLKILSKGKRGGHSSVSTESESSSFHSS
Chain of CCL19 (control chemokine) (ligand) (Q99731 22-98): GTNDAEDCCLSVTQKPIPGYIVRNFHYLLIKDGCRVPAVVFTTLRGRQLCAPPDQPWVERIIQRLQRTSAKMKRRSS
Chain of LMEC-derived CXCL12 (endogenous CXCL12 of human lung microvascular endothelial cells) (human) (P48061 22-93 limits assumed): as the sequence (P48061 22-93) above

In experiment [1], CCL19 (control chemokine) (ligand) showed an adhesion of CXCR4-B16 cells to chemokine-treated DMEC (adherent cells, parallel plate flow chamber) of 6.8; an arrest of CXCR4-B16 cells on plates co-coated with VCAM-1/Ig and CCL19 at 1.5 dynes/cm^2 (Mean adherent cells/field) of 17.2.
In experiment [1], “LMEC-derived CXCL12 (endogenous CXCL12 of human lung microvascular endothelial cells) (from UniProt P48061 22-93) (ligand)” displayed an arrest of CXCR4-B16 against pLNCX2-B16 cells on LMEC, no exogenous CXCL12 of 3 times and an arrest of CXCR4-B16 cells on TNFα-treated LMEC under flow, no exogenous CXCL12 (Mean adherent cells/field) of 102.
As for “Mouse anti-human CXCR4 mAb (clone 44716.111, R&D Systems) (antibody)”, the arrest on TNF-α-stimulated LMEC of CXCR4-B16 cells pretreated with anti-CXCR4 mAb (10 µg/ml) (Mean adherent cells/field) in experiment [1] turned out to be 7.5.
Take “anti-human CXCL12 mAb (clone 77014.111, R&D Systems) (antibody)”: the arrest of CXCR4-B16 cells on LMEC pretreated with anti-CXCL12 mAb (100 µg/ml) (Mean adherent cells/field) in experiment [2] was determined as 41.2.
In experiment [1], recombinant CXCL12 (SDF-1) (ligand) showed an adhesion of CXCR4-B16 cells to CXCL12-treated DMEC (adherent cells, parallel plate flow chamber) of 85.2; an adhesion of CXCR4-B16 cells to CXCL12-treated LMEC (adherent cells) of 321; an arrest of CXCR4-B16 cells on TNFα-treated LMEC under flow, with exogenous CXCL12 (Mean adherent cells/field) of 170; an arrest of CXCR4-B16 cells on plates co-coated with VCAM-1/Ig and CXCL12 at 1.5 dynes/cm^2 (Mean adherent cells/field) of 87.2. In experiment [1], this substance yielded a growth of CXCR4-B16 cells in low serum, cell count at 24 h of 19.3 and a growth of CXCR4-B16 cells in low serum, cell count at 48 h of 35.3.
